Measurements from paper PMC6499816, “Molecular determinants regulating selective binding of autophagy adapters and receptors to ATG8 proteins” (Nature Communications, 2019).
One block for each substance: values may come before it.

Tests used:
PCM1 V1956D LIR peptide = assay: BLI; biotinylated LIR peptide immobilised on streptavidin biosensors (Octet Red 96), ATG8 protein in solution; 25 mM Tris pH 7.5, 150 mM NaCl, 0.5 mM TCEP, 0.1% Tween-20, 1 mg/ml BSA, 25 °C; Kd from response against concentration, Y=Rmax*X/(Kd+X)
[1] = target: PCM1 LIR peptide (biotinylated, BLI); assay: BLI; biotinylated LIR peptide (50 μg/ml) immobilised on streptavidin biosensor, ATG8 in solution; Octet Red 96; 25 mM Tris pH 7.5, 150 mM NaCl, 0.5 mM TCEP, 0.1% Tween-20, 1 mg/ml BSA; 25 °C; Kd from response against concentration
[2] = target: ULK1 LIR peptide (biotinylated, BLI) (human); assay: as above
PCM1 WT LIR peptide = assay: BLI; biotinylated LIR peptide immobilised on streptavidin biosensors (Octet Red 96), ATG8 protein in solution; 25 mM Tris pH 7.5, 150 mM NaCl, 0.5 mM TCEP, 0.1% Tween-20, 1 mg/ml BSA, 25 °C; Kd from response against concentration, Y=Rmax*X/(Kd+X)
PCM1 K1957I LIR peptide = assay: as above
FIP200 T704I LIR peptide = assay: as above
GFP-GABARAP F60L (human) = GFP-GABARAP F60L (human) (UniProt O95166); assay: co-IP; GFP-TRAP beads, lysates of HEK293A cells expressing GFP-GABARAP or GFP-LC3B constructs, TNTE buffer, 2 h at 4 °C; immunoblot of endogenous proteins, quantified
[3] = target: -L1 (recombinant, BLI) (human) (UniProt Q9H0R8); assay: BLI
LC3B (Homo sapiens) = LC3B (Homo sapiens) (UniProt Q9GZQ8); assay: ITC; details: cited from earlier work

Chain of GABARAP-L1 (recombinant, BLI) (Q9H0R8 whole entry): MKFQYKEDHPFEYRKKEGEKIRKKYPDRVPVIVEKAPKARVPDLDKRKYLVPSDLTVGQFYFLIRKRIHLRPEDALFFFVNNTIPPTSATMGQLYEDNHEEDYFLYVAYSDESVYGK
Chain of PCM1 LIR peptide mutated at P1962 (X7) (BLI) (Q15154 whole entry, looked up, change not shown, tested part not stated): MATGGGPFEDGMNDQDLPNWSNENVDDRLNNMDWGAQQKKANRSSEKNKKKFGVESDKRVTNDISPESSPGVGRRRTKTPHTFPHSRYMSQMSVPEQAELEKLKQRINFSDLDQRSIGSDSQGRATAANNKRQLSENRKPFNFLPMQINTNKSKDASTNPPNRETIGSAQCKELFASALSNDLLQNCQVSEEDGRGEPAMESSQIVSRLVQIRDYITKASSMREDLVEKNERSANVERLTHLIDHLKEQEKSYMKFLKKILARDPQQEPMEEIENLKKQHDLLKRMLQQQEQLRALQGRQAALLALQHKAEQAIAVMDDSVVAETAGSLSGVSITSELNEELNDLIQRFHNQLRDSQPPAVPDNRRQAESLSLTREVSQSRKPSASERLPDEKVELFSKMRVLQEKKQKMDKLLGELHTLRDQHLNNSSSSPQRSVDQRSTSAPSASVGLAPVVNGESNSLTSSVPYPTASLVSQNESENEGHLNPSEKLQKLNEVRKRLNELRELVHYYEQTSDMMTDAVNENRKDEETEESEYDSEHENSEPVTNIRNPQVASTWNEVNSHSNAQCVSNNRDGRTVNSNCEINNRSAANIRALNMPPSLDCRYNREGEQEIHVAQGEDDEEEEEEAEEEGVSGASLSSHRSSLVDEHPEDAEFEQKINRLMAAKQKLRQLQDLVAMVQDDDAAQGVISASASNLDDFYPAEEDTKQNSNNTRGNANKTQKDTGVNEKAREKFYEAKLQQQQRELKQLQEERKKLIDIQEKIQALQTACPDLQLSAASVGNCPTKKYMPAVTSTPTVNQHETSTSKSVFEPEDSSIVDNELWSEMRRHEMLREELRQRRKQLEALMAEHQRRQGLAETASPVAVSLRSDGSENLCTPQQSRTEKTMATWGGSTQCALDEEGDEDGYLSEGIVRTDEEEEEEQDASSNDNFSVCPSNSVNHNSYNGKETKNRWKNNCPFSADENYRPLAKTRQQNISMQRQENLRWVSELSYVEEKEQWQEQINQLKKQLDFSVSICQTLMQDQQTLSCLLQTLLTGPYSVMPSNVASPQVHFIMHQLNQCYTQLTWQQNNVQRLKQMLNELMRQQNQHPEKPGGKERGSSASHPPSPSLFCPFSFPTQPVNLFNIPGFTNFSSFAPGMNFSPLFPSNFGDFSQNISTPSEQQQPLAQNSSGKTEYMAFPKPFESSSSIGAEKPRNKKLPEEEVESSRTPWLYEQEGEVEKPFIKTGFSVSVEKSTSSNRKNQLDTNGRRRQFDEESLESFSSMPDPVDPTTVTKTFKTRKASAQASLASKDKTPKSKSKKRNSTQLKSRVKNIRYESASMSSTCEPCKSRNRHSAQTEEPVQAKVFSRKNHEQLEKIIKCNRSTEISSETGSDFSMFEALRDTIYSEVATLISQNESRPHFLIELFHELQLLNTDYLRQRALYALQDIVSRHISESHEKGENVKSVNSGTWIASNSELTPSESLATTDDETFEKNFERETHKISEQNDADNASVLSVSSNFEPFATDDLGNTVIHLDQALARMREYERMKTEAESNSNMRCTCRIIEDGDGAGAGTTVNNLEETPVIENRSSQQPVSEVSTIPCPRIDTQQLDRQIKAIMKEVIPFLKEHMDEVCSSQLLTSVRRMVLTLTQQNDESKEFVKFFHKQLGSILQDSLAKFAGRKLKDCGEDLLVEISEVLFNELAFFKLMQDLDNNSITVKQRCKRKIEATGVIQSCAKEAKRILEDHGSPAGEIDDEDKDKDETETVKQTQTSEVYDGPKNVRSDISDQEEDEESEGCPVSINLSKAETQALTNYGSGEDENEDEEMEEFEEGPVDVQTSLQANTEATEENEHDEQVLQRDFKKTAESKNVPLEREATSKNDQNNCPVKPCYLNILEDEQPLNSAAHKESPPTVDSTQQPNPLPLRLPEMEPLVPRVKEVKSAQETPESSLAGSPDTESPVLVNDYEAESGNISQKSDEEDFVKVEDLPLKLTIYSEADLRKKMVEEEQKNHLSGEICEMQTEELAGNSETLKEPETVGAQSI
Chain of -L1 (recombinant, BLI) (human) (Q9H0R8 whole entry): as the sequence (Q9H0R8 whole entry) above

Substance: GABARAP K24Q (from UniProt O95166 1-117) (natural protein)
Kd (PCM1 WT LIR peptide): 16600 nM

Substance: GABARAP Y25H (from UniProt O95166 1-117) (natural protein)
Kd (PCM1 WT LIR peptide): 11400 nM

Substance: LC3C (from UniProt Q9BXW4 1-126) (natural protein)
Kd (FIP200 T704I LIR peptide): 2000 nM | Kd (PCM1 K1957I LIR peptide): 384 nM

Substance: PCM1 (pericentriolar material 1), Q15154-5 1-2016
percent reduction of interaction against WT GABARAP (GFP-GABARAP F60L (human)): 90%

Substance: PCM1 LIR peptide mutated at P1962 (X7) (BLI) (from UniProt Q15154)
Kd [3]: 880 nM

Substance: p62 LIR (from UniProt Q13501)
Kd (LC3B (Homo sapiens)): 3200 nM

Further lines, results first:

Kd (PCM1 V1956D LIR peptide): 7720 nM
Substance: GABARAP (from UniProt O95166 1-117) (natural protein)

Kd [1]: 2000 nM | Kd [2]: 50 nM
Substance: GABARAP (recombinant, BLI) (from UniProt O95166 1-117) (natural protein)

Kd (PCM1 WT LIR peptide): 250000 nM
Substance: GABARAP K24Q/Y25H/Q59E/F60L (from UniProt O95166 1-117) (natural protein)

Kd (PCM1 WT LIR peptide): 66000 nM
Substance: GABARAP K24Q/Y25H/R28K (from UniProt O95166 1-117) (natural protein)

Kd [1]: 1600 nM | Kd [2]: 48 nM
Substance: GABARAP-L1 (recombinant, BLI) (from UniProt Q9H0R8 1-117) (natural protein)

Kd (PCM1 K1957I LIR peptide): 3930 nM
Substance: LC3A (from UniProt Q9H492 1-121) (natural protein)
